Results taken from PMC9215706 (Cell reports, 2022).

Biological target: T1, Recombinant Ubiquitin activating enzyme E1 (human) - UBA1 (human, UniProt P22314 1-1058)
T1 sequence: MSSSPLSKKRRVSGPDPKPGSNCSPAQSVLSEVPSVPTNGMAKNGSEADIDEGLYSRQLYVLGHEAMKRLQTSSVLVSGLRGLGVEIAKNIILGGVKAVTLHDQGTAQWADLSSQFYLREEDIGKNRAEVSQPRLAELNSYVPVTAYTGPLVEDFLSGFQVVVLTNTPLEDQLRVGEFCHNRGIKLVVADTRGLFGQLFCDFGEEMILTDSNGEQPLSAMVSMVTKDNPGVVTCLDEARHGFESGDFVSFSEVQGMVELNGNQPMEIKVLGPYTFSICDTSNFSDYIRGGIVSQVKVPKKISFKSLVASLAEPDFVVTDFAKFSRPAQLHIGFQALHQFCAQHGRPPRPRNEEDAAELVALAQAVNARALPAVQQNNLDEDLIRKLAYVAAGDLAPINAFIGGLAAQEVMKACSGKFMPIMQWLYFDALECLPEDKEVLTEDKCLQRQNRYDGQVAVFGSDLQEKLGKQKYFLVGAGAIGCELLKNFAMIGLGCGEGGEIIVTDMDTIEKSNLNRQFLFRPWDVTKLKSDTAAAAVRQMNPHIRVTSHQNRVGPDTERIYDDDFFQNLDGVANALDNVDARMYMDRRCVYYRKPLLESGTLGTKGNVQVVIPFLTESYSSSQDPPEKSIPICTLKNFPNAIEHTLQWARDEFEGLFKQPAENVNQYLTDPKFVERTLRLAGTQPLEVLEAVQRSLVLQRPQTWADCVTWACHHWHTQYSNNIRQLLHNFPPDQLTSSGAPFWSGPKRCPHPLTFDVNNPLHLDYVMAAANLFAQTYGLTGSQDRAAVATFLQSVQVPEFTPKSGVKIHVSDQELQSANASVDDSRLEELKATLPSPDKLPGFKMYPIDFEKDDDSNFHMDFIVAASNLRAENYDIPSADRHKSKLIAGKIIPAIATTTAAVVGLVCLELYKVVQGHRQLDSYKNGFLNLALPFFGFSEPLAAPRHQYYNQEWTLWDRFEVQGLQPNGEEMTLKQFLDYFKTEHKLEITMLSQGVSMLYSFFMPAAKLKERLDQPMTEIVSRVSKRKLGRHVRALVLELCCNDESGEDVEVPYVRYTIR
Experiment: in vitro oxidation and non-reducing immunoblot of a disulfide-linked complex

binding result: binds
B1: recombinant Rad6 (enzyme)
chain: MSTPARRRLMRDFKRMKEDAPPGVSASPLPDNVMVWNAMIIGPADTPYEDGTFRLLLEFDEEYPNKPPHVKFLSEMFHPNVYANGEICLDILQNRWTPTYDVASILTSIQSLFNDPNPASPANVEAATLFKDHKSQYVKRVKETVEKSWEDDMDDMDDDDDDDDDDDDDEAD
